The values that follow come from patent EP1708961B1 (Abbott Biotherapeutics Corp., dated 2011).

One may read the IC50 as the point on the concentration scale where inhibition reaches its midpoint. One may read the Kd as the concentration at which binding is half-saturated. For orientation: koff means the first-order rate constant of dissociation. The kon is the second-order rate constant of association.

Values joined by “and” are separate entries in the source; they are usually repeats but may differ in a detail not shown here. Equal entries are not always repeated.

Assay [1] addresses T1, recombinant human IP-10 (human, UniProt P02778 22-98).
T1 construct: Bought from R&D Systems; also called CXCL10; rhIP-10
T1 sequence: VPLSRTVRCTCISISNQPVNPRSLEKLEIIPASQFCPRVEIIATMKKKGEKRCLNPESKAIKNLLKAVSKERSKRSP
The experiment in a line: competition ELISA on human IP-10, competitor: AIP13. Background: In an ELISA, binding on a coated surface is turned into a signal by an enzyme label.

The target of assay [2] is T1, recombinant human IP-10. The experiment in a line: Biacore 2000 (SPR), antibody captured by goat anti-human IgG Fc, human IP-10 injected. A general note: In SPR one partner is held on a chip, and binding of the other changes the refractive index at the surface.
Assay [3] deals with T1, recombinant human IP-10. The experiment in a line: Biacore 2000 (SPR).
Assay [4] concerns the target T1, recombinant human IP-10. In words: competition ELISA on coated human IP-10, competitor: biotinylated MuAIP13; Exp. B.
The target of assay [5] is T1, recombinant human IP-10. In words: cell-based or functional assay.
In assay [6] the target is T1, recombinant human IP-10. In words: cell-based or functional assay. This is another data set of the same source.
The target of assay [7] is T1, recombinant human IP-10. In words: competition ELISA on coated human IP-10; average.
For assay [8], the target named is T1, recombinant human IP-10. In words: competition ELISA on coated human IP-10, competitor: biotinylated MuAIP13; average.
Assay [9] concerns the target T1, recombinant human IP-10. In words: competition ELISA on coated human IP-10; Exp. C.
Assay [10] concerns the target T1, recombinant human IP-10. In words: Biacore (SPR).
For assay [11], the target named is T1, recombinant human IP-10. In words: competition ELISA on coated human IP-10, competitor: biotinylated MuAIP13; Exp. C.
In assay [12] the target is T1, recombinant human IP-10. The experiment in a line: competition ELISA on coated human IP-10, competitor: biotinylated MuAIP13; Exp. A.
Assay [13] has as its target T1, recombinant human IP-10. In words: competition ELISA on coated human IP-10; Exp. B.
The target of assay [14] is T1, recombinant human IP-10. In words: competition ELISA on coated human IP-10; Exp. A.
For assay [15], the target named is T1, recombinant human IP-10. In words: competition ELISA on coated human IP-10, competitor: biotinylated MuAIP12; Exp. B.
The target of assay [16] is T1, recombinant human IP-10. In words: competition ELISA on coated human IP-10, competitor: biotinylated MuAIP12; Exp. D.
Assay [17] deals with T1, recombinant human IP-10. The experiment in a line: competition ELISA on coated human IP-10, competitor: biotinylated MuAIP12; Exp. C.
Assay [18] has as its target T1, recombinant human IP-10. In words: competition ELISA on coated human IP-10, competitor: biotinylated MuAIP12; average.
The target of assay [19] is T1, recombinant human IP-10. The experiment in a line: competition ELISA on coated human IP-10, competitor: biotinylated MuAIP12; Exp. A.

B1: HuAIP12 G104A variant antibody (antibody, human IgG1, V domains shown)
VH: EVQLVQSGAEVKKPGATVKISCKVSGYTFTDYSMHWVRQAPGKGLKWMGWINTETGEPTYADDFKGRFTFTLDTSTSTAYMELSSLRSEDTAVYYCARNYDYDAYFDVWGQGTTVTVSS
VL: DIQMTQSPSSLSASVGDRVTITCKASQDINKYIAWYQQKPGKAPKLLIHYTSTLQPGIPSRFSGSGSGRDYTFTISSLQPEDIATYYCLQYDNLLFTFGQGTKLEIK
notes: Human IgG1/kappa (gamma-1 and kappa expression vectors), transiently expressed in 293-H cells
As to B1, in the assay with recombinant human IP-10 [1], the half-inhibitory concentration (IC50) turned out to be 59.5 µg/mL and the “fold decrease in binding affinity against unmodified HuAIP12” value was determined as 14.5 fold. In the assay with recombinant human IP-10 [2], the Kd worked out at 5.98 nM, the dissociation rate constant (koff) was 0.000784 s⁻¹ and the kon came to 131000 M⁻¹ s⁻¹. Besides, in the assay with recombinant human IP-10 [3], the “fold faster off-rate (kd) against unmodified HuAIP12” value is roughly 2 fold, the “fold higher Kd against unmodified HuAIP12” value is greater than 20 fold, the “fold slower on-rate (ka) against unmodified HuAIP12” value is roughly 10 fold and the “fold weaker monovalent interaction against unmodified HuAIP12” value came out at 20 fold.

B2: HuAIP12 T55I variant antibody (antibody, V domains shown)
VH: EVQLVQSGAEVKKPGATVKISCKVSGYTFTDYSMHWVRQAPGKGLKWMGWINTEIGEPTYADDFKGRFTFTLDTSTSTAYMELSSLRSEDTAVYYCARNYDYDGYFDVWGQGTTVTVSS
VL: DIQMTQSPSSLSASVGDRVTITCKASQDINKYIAWYQQKPGKAPKLLIHYTSTLQPGIPSRFSGSGSGRDYTFTISSLQPEDIATYYCLQYDNLLFTFGQGTKLEIK
B2: the IC50 in the assay with recombinant human IP-10 [1] turned out to be 1.6 µg/mL. Also, in the assay with recombinant human IP-10 [2], the Kd worked out at 0.0269 nM, the dissociation rate constant (koff) was determined as 4.67e-05 s⁻¹ and the association rate constant (kon) amounted to 1.66e+06 M⁻¹ s⁻¹. In the assay with recombinant human IP-10 [3], the “fold slower off-rate against unmodified HuAIP12” value is roughly 9 fold and the “fold stronger affinity against unmodified HuAIP12” value is greater than 9 fold.

B3: 12H+13L antibody (antibody, V domains shown)
VH: EVQLVQSGAEVKKPGATVKISCKVSGYTFTDYSMHWVRQAPGKGLKWMGWINTETGEPTYADDFKGRFTFTLDTSTSTAYMELSSLRSEDTAVYYCARNYDYDGYFDVWGQGTTVTVSS
VL: DIQMTQSPSSLSASVGDRVTITCKADQDINKYIAWYQQKPGKAPKLLLHHTSTLQPGIPSRFSGSGSGRDYTFTISSLQPEDIATYYCLQYDSLLFTFGQGTKLEIK
notes: HuAIP12 heavy chain with HuAIP13 light chain; human gamma-1/kappa
For the molecule B3, the concentration for half-maximal inhibition (IC50) in the assay with recombinant human IP-10 [1] was found to be 3 µg/mL.

B4: 13H+12L antibody (antibody, V domains shown)
VH: EVQLVQSGAEVKKPGATVKISCKVSGYTFTDYSMHWVRQAPGKGLKWMGWINTEIGEPTYADDFKGRFTFTLDTSTSTAYMELSSLRSEDTAVYYCARNYDYDAYFDVWGQGTTVTVSS
VL: DIQMTQSPSSLSASVGDRVTITCKASQDINKYIAWYQQKPGKAPKLLIHYTSTLQPGIPSRFSGSGSGRDYTFTISSLQPEDIATYYCLQYDNLLFTFGQGTKLEIK
notes: HuAIP13 heavy chain with HuAIP12 light chain; human gamma-1/kappa
Consider B4, for which the concentration for half-maximal inhibition (IC50) with recombinant human IP-10 [1] is 13.6 µg/mL.

B5: humanized monoclonal antibody HuAIP13 (antibody, human IgG1, V domains shown)
VH: EVQLVQSGAEVKKPGATVKISCKVSGYTFTDYSMHWVRQAPGKGLKWMGWINTEIGEPTYADDFKGRFTFTLDTSTSTAYMELSSLRSEDTAVYYCARNYDYDAYFDVWGQGTTVTVSS
VL: DIQMTQSPSSLSASVGDRVTITCKADQDINKYIAWYQQKPGKAPKLLLHHTSTLQPGIPSRFSGSGSGRDYTFTISSLQPEDIATYYCLQYDSLLFTFGQGTKLEIK
notes: Human IgG1/kappa
On to B5, for which the IC50 is 6.5 µg/mL with recombinant human IP-10 [4]; 9.2 µg/mL with recombinant human IP-10 [1]; 5.8 µg/mL with recombinant human IP-10 [8]; 4.8 µg/mL with recombinant human IP-10 [11]; 6.1 µg/mL in the assay with recombinant human IP-10 [12]. Further, the “inhibition of chemotaxis (IC50%) on recombinant IP-10, donor 215” value (from here on “inhibition of chemotaxis (IC50%) … donor 215”) with recombinant human IP-10 [5] stood at 139 ng/mL. Moreover, the “inhibition of chemotaxis (IC50%) on recombinant IP-10, donor 318” value (“inhibition of chemotaxis (IC50%) … donor 318” for short) with recombinant human IP-10 [5] was determined as 45 ng/mL. The “inhibition of chemotaxis (IC50%) on recombinant IP-10, donor 1012” value (“inhibition of chemotaxis (IC50%) … donor 1012” for short) with recombinant human IP-10 [5] turned out to be 77 ng/mL. Moreover, in the assay with recombinant human IP-10 [5], the “inhibition of chemotaxis (IC50%) on recombinant IP-10, mean of donors” value (from here on “inhibition of chemotaxis (IC50%) … of donors”) amounted to 86 ng/mL. Also, the “IC50 of inhibition of IP-10 mediated chemotaxis” value in the assay with recombinant human IP-10 [6] was roughly 100 ng/mL. Also, the “fold difference of IC50 against MuAIP13” value with recombinant human IP-10 [7] was found to be 2.8 fold; with recombinant human IP-10 [9], 2.7 fold; in the assay with recombinant human IP-10 [13], 2.7 fold; with recombinant human IP-10 [14], 2.9 fold. Further, in the assay with recombinant human IP-10 [10], the Kd came out at 1.24 nM. Moreover, the koff with recombinant human IP-10 [10] is 0.000194 s⁻¹. In the assay with recombinant human IP-10 [10], the kon came out at 156000 M⁻¹ s⁻¹.

B6: murine monoclonal antibody AIP12 (antibody, V domains shown)
VH: QIQLVQSGPELKKPGETVKISCKASGYTFTDYSMHWVKQAPGKGLKWMGWINTETGEPTYADDFKGRFAFSLETSASTAYLQINNLKNEDTATYFCARNYDYDGYFDVWGAGTTVTVSS
VL: DIQMTQSPSSLSASLGGKVTITCKASQDINKYIAWYQHKPGKGPRLLIHYTSTLQPGIPSRFSGSGSGRDYSFSISNLEPEDIATYYCLQYDNLLFTFGSGTKLEIK
notes: Mouse hybridoma antibody; also called MuAIP12
As for B6, in the assay with recombinant human IP-10 [15], the IC50 was 4.4 µg/mL. Moreover, in the assay with recombinant human IP-10 [5], the “inhibition of chemotaxis (IC50%) … donor 215” value amounted to 130 ng/mL; the “inhibition of chemotaxis (IC50%) … donor 318” value is 41 ng/mL; the “inhibition of chemotaxis (IC50%) … donor 1012” value was found to be 91 ng/mL; the “inhibition of chemotaxis (IC50%) on recombinant IP-10, donor 1022” value was 135 ng/mL and 51 ng/mL and 86 ng/mL. In addition, the “inhibition of chemotaxis (IC50%) … of donors” value with recombinant human IP-10 [5] was determined as 89 ng/mL. The IC50 in the assay with recombinant human IP-10 [16] was 4.2 µg/mL. In the assay with recombinant human IP-10 [17], the half-maximal inhibitory concentration (IC50) is 6.6 µg/mL. In addition, the IC50 with recombinant human IP-10 [18] is 5.4 µg/mL. Also, the IC50 in the assay with recombinant human IP-10 [19] was 6.5 µg/mL. In the assay with recombinant human IP-10 [10], the dissociation constant Kd was determined as 0.275 nM, the off-rate constant (koff) worked out at 0.000282 s⁻¹ and the kon came to 1.05e+06 M⁻¹ s⁻¹.

B7: murine monoclonal antibody AIP13 (antibody, V domains shown)
VH: QIQLVQSGPELKKPGETVKISCKASGYTFTDYSMHWVKQAPGKGLKWMGWINTEIGEPTYADDFKGRFAFSLETSASTAYLQINNLKNEDTATYFCARNYDYDAYFDVWGAGTTVTVSS
VL: DIQMTQSPSSLSASLGGKVTITCKADQDINKYIAWYQHKPGRGPRLLLHHTSTLQPGIPSRFSGSGSGRDYSFSISNLEPADIATYYCLQYDSLLFTFGSGTKLEIK
notes: Mouse hybridoma antibody; Mouse IgG1/kappa was used as its isotype control; also called MuAIP13
As for B7, the IC50 in the assay with recombinant human IP-10 [4] turned out to be 2.4 µg/mL. Moreover, in the assay with recombinant human IP-10 [5], the “inhibition of chemotaxis (IC50%) … donor 215” value came to 260 ng/mL; the “inhibition of chemotaxis (IC50%) … donor 318” value came out at 139 ng/mL; the “inhibition of chemotaxis (IC50%) … donor 1012” value came out at 84 ng/mL; the “inhibition of chemotaxis (IC50%) on recombinant IP-10, donor 1022” value is 229 ng/mL and 154 ng/mL and 78 ng/mL. Besides, the “inhibition of chemotaxis (IC50%) … of donors” value with recombinant human IP-10 [5] turned out to be 157 ng/mL. Besides, the 50% inhibitory concentration (IC50) in the assay with recombinant human IP-10 [8] was 2.1 µg/mL. For the same molecule, in the assay with recombinant human IP-10 [10], the dissociation constant Kd worked out at 1.24 nM, the off-rate (koff) came out at 0.000196 s⁻¹ and the kon is 158000 M⁻¹ s⁻¹. For the same molecule, the IC50 in the assay with recombinant human IP-10 [11] is 1.8 µg/mL. Further, the IC50 in the assay with recombinant human IP-10 [12] is 2.1 µg/mL.
